The record followed here is patent US20110152202A1 (STC UNM, published 2011).

Assay [1] concerns the target T1, mouse FcγRI on mouse peritoneal macrophages (from FcγRIIb-/- mice) (mouse, UniProt P26151 25-404).
T1 construct: whole, on cells; also called FcγRI on mouse macrophages
T1 sequence (looked up): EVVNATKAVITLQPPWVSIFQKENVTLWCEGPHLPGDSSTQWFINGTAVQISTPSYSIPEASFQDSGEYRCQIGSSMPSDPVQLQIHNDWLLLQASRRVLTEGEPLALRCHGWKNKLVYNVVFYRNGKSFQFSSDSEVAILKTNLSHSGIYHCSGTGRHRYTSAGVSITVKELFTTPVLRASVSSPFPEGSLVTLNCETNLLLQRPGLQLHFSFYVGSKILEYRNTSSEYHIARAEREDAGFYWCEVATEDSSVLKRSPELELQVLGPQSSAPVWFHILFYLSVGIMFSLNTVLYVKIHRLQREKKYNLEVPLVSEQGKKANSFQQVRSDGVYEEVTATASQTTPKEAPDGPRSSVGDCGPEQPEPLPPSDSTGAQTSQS
Put plainly: two-color flow cytometry of CRP bound to mouse peritoneal macrophages expressing FcγRI (from FcγRIIb-/- mice); panel title 'Binding to FcγRI'. The source says:
A. Macrophages expressing FcγRI (from FcγRIIb^{-/-} mice). B. Macrophages expressing FcγRIIb (from FcR γ-chain^{-/-} mice).
A general note: In flow cytometry, cells or beads pass a laser one at a time.

Another assay deals with T2, human FcγRI (human, UniProt P12314 16-288, limits assumed).
T2 construct: Immobilized on the SPR chip
T2 sequence (P12314 16-288 limits assumed): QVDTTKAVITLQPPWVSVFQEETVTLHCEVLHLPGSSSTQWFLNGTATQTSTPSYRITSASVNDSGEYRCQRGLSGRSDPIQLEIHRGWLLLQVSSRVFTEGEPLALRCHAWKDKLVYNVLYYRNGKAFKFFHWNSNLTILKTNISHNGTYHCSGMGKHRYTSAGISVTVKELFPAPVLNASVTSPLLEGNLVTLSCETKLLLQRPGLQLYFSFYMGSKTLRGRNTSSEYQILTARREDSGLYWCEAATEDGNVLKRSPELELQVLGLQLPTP
The experiment in a line: SPR, CRP as analyte on immobilized human FcγR. (SPR reads the build-up and loss of mass on a sensor chip optically.)

The target of another assay is human FcγRIII (human). Put plainly: SPR, CRP as analyte on immobilized human FcγR.
human FcγRIII (human), sequence (O75015 17-200): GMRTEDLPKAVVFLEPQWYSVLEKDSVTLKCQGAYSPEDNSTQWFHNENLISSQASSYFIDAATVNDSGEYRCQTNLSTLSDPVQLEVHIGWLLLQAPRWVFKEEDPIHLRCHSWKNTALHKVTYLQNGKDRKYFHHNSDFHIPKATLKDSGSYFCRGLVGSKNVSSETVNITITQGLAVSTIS

B1: C-reactive protein (human CRP) (ligand)
chain: QTDMSRKAFVFPKESDTSYVSLKAPLTKPLKAFTVCLHFYTELSSTRGYSIFSYATKRQDNEILIFWSKDIGYSFTVGGSEILFEVPEVTVAPVHICTSWESASGIVEFWVDGKPRVRKSLKKGYTVGAEASIILGQEQDSFGGNFEGSQSLVGDIGNVNMWDFVLSPDEINTIYLGGPFSPNVLNWRALKYEVQGEVFTKPQLWP
notes: also called purified human CRP; native CRP
One may read the Kd as the free concentration of one partner at which half of the binding sites on the other are occupied at equilibrium, for simple one-to-one binding. Low readings indicate a tighter complex, high ones a looser complex. In the case of B1, in assay [1], the binding result is listed as “binds”. For the same molecule, the Kd with human FcγRI was found to be 3.2 µM; with human FcγRIII, 4.1 µM.

B2: Y175L mutant CRP (tyrosine 175 replaced by leucine) (ligand)
chain: QTDMSRKAFVFPKESDTSYVSLKAPLTKPLKAFTVCLHFYTELSSTRGYSIFSYATKRQDNEILIFWSKDIGYSFTVGGSEILFEVPEVTVAPVHICTSWESASGIVEFWVDGKPRVRKSLKKGYTVGAEASIILGQEQDSFGGNFEGSQSLVGDIGNVNMWDFVLSPDEINTILLGGPFSPNVLNWRALKYEVQGEVFTKPQLWP
notes: It has 206 amino acids; The protein is recombinant; also called Y175L CRP; recombinant Y175L mutant CRP
B2: in assay [1], the binding result is listed as “binds”. Moreover, in the assay with human FcγRI, the dissociation constant Kd was 3.5 µM.
